Values belong to the molecule of their own block, whether it stands above or below them.
Experiments:
[1] = target: recombinant AMY3 (α-amylase3) lacking the chloroplast transit peptide, purified (Arabidopsis) (UniProt Q94A41); assay: SEC-MALS + other: SAXS
cross-linking = target: the molecule itself; assay: cross-linking

stoichiometry N (BAM9 per AMY3 (heterodimer)) [1]: 1
Molecule: recombinant BAM9 (β-amylase9), purified (from UniProt Q8VYW2 1-536) (natural protein)

B1: recombinant AMY3 (α-amylase3) lacking the chloroplast transit peptide, purified (enzyme, Arabidopsis, UniProt Q94A41 56-887, looked up)
chain: SMNKSPVAIRATSSDTAVVETAQSDDVIFKEIFPVQRIEKAEGKIYVRLKEVKEKNWELSVGCSIPGKWILHWGVSYVGDTGSEWDQPPEDMRPPGSIAIKDYAIETPLKKLSEGDSFFEVAINLNLESSVAALNFVLKDEETGAWYQHKGRDFKVPLVDDVPDNGNLIGAKKGFGALGQLSNIPLKQDKSSAETDSIEERKGLQEFYEEMPISKRVADDNSVSVTARKCPETSKNIVSIETDLPGDVTVHWGVCKNGTKKWEIPSEPYPEETSLFKNKALRTRLQRKDDGNGSFGLFSLDGKLEGLCFVLKLNENTWLNYRGEDFYVPFLTSSSSPVETEAAQVSKPKRKTDKEVSASGFTKEIITEIRNLAIDISSHKNQKTNVKEVQENILQEIEKLAAEAYSIFRSTTPAFSEEGVLEAEADKPDIKISSGTGSGFEILCQGFNWESNKSGRWYLELQEKADELASLGFTVLWLPPPTESVSPEGYMPKDLYNLNSRYGTIDELKDTVKKFHKVGIKVLGDAVLNHRCAHFKNQNGVWNLFGGRLNWDDRAVVADDPHFQGRGNKSSGDNFHAAPNIDHSQDFVRKDIKEWLCWMMEEVGYDGWRLDFVRGFWGGYVKDYMDASKPYFAVGEYWDSLSYTYGEMDYNQDAHRQRIVDWINATSGAAGAFDVTTKGILHTALQKCEYWRLSDPKGKPPGVVGWWPSRAVTFIENHDTGSTQGHWRFPEGKEMQGYAYILTHPGTPAVFFDHIFSDYHSEIAALLSLRNRQKLHCRSEVNIDKSERDVYAAIIDEKVAMKIGPGHYEPPNGSQNWSVAVEGRDYKVWETS
stoichiometry N (cross-linking): 2
